B1: Methylmalonic aciduria type A protein, mitochondrial (Homo sapiens), Q8IVH4 (parent)
chain: MPMLLPHPHQHFLKGLLRAPFRCYHFIFHSSTHLGSGIPCAQPFNSLGLHCTKWMLLSDGLKRKLCVQTTLKDHTEGLSDKEQRFVDKLYTGLIQGQRACLAEAITLVESTHSRKKELAQVLLQKVLLYHREQEQSNKGKPLAFRVGLSGPPGAGKSTFIEYFGKMLTERGHKLSVLAVDPSSCTSGGSLLGDKTRMTELSRDMNAYIRPSPTRGTLGGVTRTTNEAILLCEGAGYDIILIETVGVGQSEFAVADMVDMFVLLLPPAGGDELQGIKRGIIEMADLVAVTKSDGDLIVPARRIQAEYVSALKLLRKRSQVWKPKVIRISARSGEGISEMWDKMKDFQDLMLASGELTAKRRKQQKVWMWNLIQESVLEHFRTHPTVREQIPLLEQKVLIGALSPGLAADFLLKAFKSRD
partner: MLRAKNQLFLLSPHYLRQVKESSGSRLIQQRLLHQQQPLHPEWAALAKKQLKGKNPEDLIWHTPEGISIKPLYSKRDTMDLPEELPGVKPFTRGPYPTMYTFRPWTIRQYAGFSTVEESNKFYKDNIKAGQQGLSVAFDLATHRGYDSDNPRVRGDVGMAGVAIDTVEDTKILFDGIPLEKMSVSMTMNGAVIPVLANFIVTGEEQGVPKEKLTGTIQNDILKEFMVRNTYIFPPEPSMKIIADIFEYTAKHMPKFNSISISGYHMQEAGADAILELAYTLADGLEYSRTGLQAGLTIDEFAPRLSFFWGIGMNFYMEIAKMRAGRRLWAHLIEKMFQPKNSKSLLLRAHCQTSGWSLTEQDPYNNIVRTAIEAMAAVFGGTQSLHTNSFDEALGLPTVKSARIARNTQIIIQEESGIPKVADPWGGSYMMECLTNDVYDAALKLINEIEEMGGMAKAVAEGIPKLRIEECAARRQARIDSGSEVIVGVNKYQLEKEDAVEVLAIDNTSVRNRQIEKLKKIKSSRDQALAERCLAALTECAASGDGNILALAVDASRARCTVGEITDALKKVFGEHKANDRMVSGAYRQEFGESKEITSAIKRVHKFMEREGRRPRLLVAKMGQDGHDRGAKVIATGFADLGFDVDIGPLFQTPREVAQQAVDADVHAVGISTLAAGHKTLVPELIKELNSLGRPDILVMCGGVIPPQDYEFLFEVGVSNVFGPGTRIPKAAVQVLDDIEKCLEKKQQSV

Variants of: B1
Settings: with muta_human MMUT

Variant | effect of a mutation on the interaction
MPMLLPHPHQHFLKGLLRAPFRCYHFIFHSSTHLGSGIPCAQPFNSLGLHCTKWMLLSDGLKRKLCVQTTLKDHTEGLSDKEQRFVDKLYTGLIQGQRACLAEAITLVESTHSRKKELAQVLLQKVLLYHREQEQSNKGKPLAFRVGLSGPPGAGKSTFIEYFGKMLTERGHKLSVLAVDPSSCTSGRSLLGDKTRMTELSRDMNAYIRPSPTRGTLGGVTRTTNEAILLCEGAGYDIILIETVGVGQSEFAVADMVDMFVLLLPPAGGDELQGIKRGIIEMADLVAVTKSDGDLIVPARRIQAEYVSALKLLRKRSQVWKPKVIRISARSGEGISEMWDKMKDFQDLMLASGELTAKRRKQQKVWMWNLIQESVLEHFRTHPTVREQIPLLEQKVLIGALSPGLAADFLLKAFKSRD [G188R] | disrupting interaction strength
